Measurements as given in patent publication US20120129766A1 (IRM, published 2012).

T1: human β-klotho (human, UniProt Q86Z14 1-1044)
T1 sequence (looked up): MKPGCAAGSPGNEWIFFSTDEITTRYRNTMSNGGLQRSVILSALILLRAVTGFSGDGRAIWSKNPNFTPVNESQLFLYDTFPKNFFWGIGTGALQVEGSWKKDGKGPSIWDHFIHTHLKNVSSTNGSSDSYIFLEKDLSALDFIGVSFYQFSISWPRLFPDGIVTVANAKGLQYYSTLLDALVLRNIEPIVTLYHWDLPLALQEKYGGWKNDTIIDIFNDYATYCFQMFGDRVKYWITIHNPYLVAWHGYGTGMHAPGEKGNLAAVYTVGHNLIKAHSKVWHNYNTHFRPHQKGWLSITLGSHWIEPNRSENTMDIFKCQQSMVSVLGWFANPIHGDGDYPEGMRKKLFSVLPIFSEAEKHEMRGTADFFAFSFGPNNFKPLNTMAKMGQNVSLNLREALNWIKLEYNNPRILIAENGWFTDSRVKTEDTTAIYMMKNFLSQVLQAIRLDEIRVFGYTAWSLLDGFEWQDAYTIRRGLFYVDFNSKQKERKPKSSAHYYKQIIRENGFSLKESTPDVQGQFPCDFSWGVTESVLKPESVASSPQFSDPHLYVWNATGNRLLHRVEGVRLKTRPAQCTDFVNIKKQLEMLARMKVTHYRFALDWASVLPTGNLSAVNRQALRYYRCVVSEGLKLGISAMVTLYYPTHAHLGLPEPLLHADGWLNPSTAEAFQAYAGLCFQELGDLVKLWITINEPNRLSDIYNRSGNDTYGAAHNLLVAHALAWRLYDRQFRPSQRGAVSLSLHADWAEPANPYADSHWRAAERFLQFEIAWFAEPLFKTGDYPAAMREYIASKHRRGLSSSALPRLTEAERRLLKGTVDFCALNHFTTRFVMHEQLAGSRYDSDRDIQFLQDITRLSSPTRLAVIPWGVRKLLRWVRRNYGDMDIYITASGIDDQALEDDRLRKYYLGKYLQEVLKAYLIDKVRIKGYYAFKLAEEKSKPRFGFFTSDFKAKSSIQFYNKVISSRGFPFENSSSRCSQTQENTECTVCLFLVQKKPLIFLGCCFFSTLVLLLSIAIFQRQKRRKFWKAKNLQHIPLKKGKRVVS


Target: T1, human β-klotho
Assay: cell-based or functional assay

| EC50 (nM), pERK In Cell Western [nM] | Fold-WT (EC50 of variant / EC50 of FGF21-WT) [fold] | Binder |
| --- | --- | --- |
| 1.9 | 1.6 | hFGF21(33-209)-V87 (ligand) DSSPLLQFGGQVRQRYLYTDDACQTEAHLEIREDGTVGGAADQSPESLLQLRALRPGVIQILGVRTSRFLCQRPDGALYGSLHFDPEACSFRELLLEDGYNVYQSEAHGLPLHLPCNRSPHKDPAPRGPARFLPLPGLPPAPPEPPGILAPQPPDVGSSDPLAMVGPSQGRSPSYAS |
| 11 | 2.1 | hFGF21(33-209)-V81 (ligand) DSSPLLQFGGQVRQRYLYTDDAQQTEAHLEIREDGTVGGAAHQSPESLLELKALKPGVIQILGVKTSRFLCQKPDGALYGSLHFDPEACSFRELLLEDGYNVYQSEAHGLPLHLPGNRSPHCDPASQGPARFLPLPGLPPALPEPPGILAPQPPDVGSSDPLAMVGPSQGRSPSYAS |
| 5.7 | 1.5 | hFGF21(33-209)-WT-AM (ligand) DSSPLLQFGGQVRQRYLYTDDAQQTEAHLEIREDGTVGGAADQSPESLLQLKALKPGVIQILGVKTSRFLCQRPDGALYGSLHFDPEACSFRELLLEDGYNVYQSEAHGLPLHLPGNKSPHRDPAPRGPARFLPLPGLPPAPPEPPGILAPQPPDVGSSDPLSMVGPSQGRSPSYAS |
| 4.5 | 1.1 | hFGF21(33-209)-V84 (ligand) DSSPLLQFGGQVRQRYLYTDDAQQTEAHLEIREDGTVGGAADQSPESLLELKALKPGVIQILGVKTSRFLCQRPDGTLYGSLHFDPEACSFRELLLEDGYNVYQSETHGLPLHLPGNRSPHCDPASRGPARFLPLPGLPPALPEPPGILAPQPPDVGSSDPLAMVGPSQARSPSYAS |
| 0.21 | 0.38 | hFGF21(33-209)-V83 (ligand) DSSPLLQFGGQVRQRYLYTDDAQQTEAHLEIREDGTVGGAADQSPESLLELKALKPGVIQILGVKTSRFLCQKPDGTLYGSLHFDPEACSFRELLLEDGYNVYQSEAHGLPLHLPGNRSPHCDPASRGPARFLPLPGLPPALPEPPGILAPQPPDVGSSDPLAMVGPSQARSPSYAS |
| 1.5 | 2.7 | hFGF21(33-209)-V82 (ligand) DSSPLLQFGGQVRQRYLYTDDAQQTEAHLEIREDGTVGGAADQSPESLLELKALKPGVIQILGVKTSRFLCQKPDGTLYGSLHFDPEACSFRELLLEDGYNVYQSEAHGLPLHLPGNRSPHCDPASQGPARFLPLPGLPPALPEPPGILAPQPPDVGSSDPLAMVGPSQGRSPSYAS |
| 7.4 | 1 | hFGF21(33-209)-WT-CH (ligand) DSSPLLQFGGQVRQRYLYTDDAQQTEAHLEIREDGTVGGAADQSPESLLQLKALKPGVIQILGVKTSRFLCQRPDGALYGSLHFDPEACSFRELLLEDGYNVYQSEAHGLPLHLPGNKSPHRDPAPRGPARFLPLPGLPPALPEPPGILAPQPPDVGSSDPLSMVGPSQGRSPSYAS |
| 4.2 | 1.3 | hFGF21(33-209)-WT-R154C (ligand) DSSPLLQFGGQVRQRYLYTDDAQQTEAHLEIREDGTVGGAADQSPESLLQLKALKPGVIQILGVKTSRFLCQRPDGALYGSLHFDPEACSFRELLLEDGYNVYQSEAHGLPLHLPGNKSPHCDPAPRGPARFLPLPGLPPALPEPPGILAPQPPDVGSSDPLSMVGPSQGRSPSYAS |
| 9 | 2.9 | hFGF21(33-209)-WT-R154C-40 kDa bPEG-MA (ligand, 40 kDa branched maleimido-PEG on Cys 154 (numbered on SEQ ID NO:1)) DSSPLLQFGGQVRQRYLYTDDAQQTEAHLEIREDGTVGGAADQSPESLLQLKALKPGVIQILGVKTSRFLCQRPDGALYGSLHFDPEACSFRELLLEDGYNVYQSEAHGLPLHLPGNKSPHCDPAPRGPARFLPLPGLPPALPEPPGILAPQPPDVGSSDPLSMVGPSQGRSPSYAS |
| 2 | 0.3 | hFGF21(33-209)-V85 (ligand) DSSPLLQFGGQVRQRYLYTDDAQQTEAHLEIREDGTVGGAAHQSPESLLELKALKPGVIQILGVKTSRFLCQKPDGALYGSLHFDPEACSFRELLLEEGYNVYQSEAHGLPLHLPGNRSPHCDPAPQGPARFLPLPGLPPALPEPPGILAPQPPDVGSSDPLAMVGPSQGRSPSYAS |
| 20 | 6.3 | hFGF21(33-209)-WT-N-40 kDa bPEG-AL (ligand, 40 kDa branched PEG (aldehyde reagent) on the N-terminal amine) DSSPLLQFGGQVRQRYLYTDDAQQTEAHLEIREDGTVGGAADQSPESLLQLKALKPGVIQILGVKTSRFLCQRPDGALYGSLHFDPEACSFRELLLEDGYNVYQSEAHGLPLHLPGNKSPHRDPAPRGPARFLPLPGLPPALPEPPGILAPQPPDVGSSDPLSMVGPSQGRSPSYAS |
| 8.5 | 4.5 | hFGF21(33-209)-V86 (ligand) DSSPLLQFGGQVRQRYLYTDDAQQTEAHLEIREDGTVGGAADQSPESLLQLRALRPGVIQILGVRTSRFLCQRPDGALYGSLHFDPEACSFRELLLEDGYNVYQSEAHGLPLHLPGNRSPHKDPAPRGPARFLPLPGLPPAPPEPPGILAPQPPDVGSSDPLAMVGPSQGRSPSYAS |
